Patent publication US7038022, “Multimeric forms of members of the steroid/thyroid superfamily of receptors” (The Salk Institute for Biological Studies)

Legend:
[1] = target: T1, hRARα expressed in cells from RS-hRARα (human, UniProt P10276 1-462); assay: gel mobility shift, βRARE probe, whole-cell extracts of transfected Cos cells
T1 construct: Intracellular expression; whole cell extracts in the Cos cell gel shifts; also called RS-hRARa; RS-RARα
T1 sequence (looked up): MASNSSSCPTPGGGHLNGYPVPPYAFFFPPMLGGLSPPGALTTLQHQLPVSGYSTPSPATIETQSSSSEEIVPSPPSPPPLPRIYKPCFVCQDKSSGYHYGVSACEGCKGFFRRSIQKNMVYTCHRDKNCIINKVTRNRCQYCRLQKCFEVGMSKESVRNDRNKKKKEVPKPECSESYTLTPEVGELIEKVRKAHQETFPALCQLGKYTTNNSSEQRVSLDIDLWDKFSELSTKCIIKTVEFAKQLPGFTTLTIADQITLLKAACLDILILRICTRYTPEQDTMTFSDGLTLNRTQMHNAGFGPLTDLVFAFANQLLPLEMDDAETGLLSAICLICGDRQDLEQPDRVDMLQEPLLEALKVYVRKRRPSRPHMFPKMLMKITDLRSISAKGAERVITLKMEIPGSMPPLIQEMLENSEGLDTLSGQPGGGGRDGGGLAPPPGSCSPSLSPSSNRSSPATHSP
Protocol: DNA-protein complexes were resolved on a 4% polyacrylamide gel in 0.5×TBE (1×TBE=90 mM Tris, 90 mM boric acid, 2 mM EDTA).

[2] = target: the molecule itself; assay: gel mobility shift, 32P-labeled DR-1 probe
[3] = target: T2, COUP-TF/RXRalpha heterodimer (UniProt P10589;P19793 P10589:1-423,P19793:1-462); assay: EMSA; heterodimer favored over homodimers; supershifted by RXR antiserum; conditions: tags: RXR as GST fusion; label: 32P
Protocol: (§1) Bacterial-expressed COUP-TF and RXR-glutathione-S-transferase fusion protein (RXR-GST) were mixed and the resulting complexes analyzed by gel mobility shift assays using ^32P-labeled DR-1 oligonucleotide (i e., SEQ ID No. 21) as probe. The larger RXR fusion protein was used in order to maximize the migratory differences observed between the COUP-TF and RXR complexes.
(§2) Gel mobility shift assays were performed using ^32P-labeled DR-1 oligonucleotide (SEQ ID No. 21) in the presence of partially-purified COUP-TF (500 ng) and increasing amounts of partially-purified RXR (1×–50 ng) as indicated in FIG. 1. Either 0.3 μl or 1 μl of RXR-specific antiserum was included in the assays (shown in lanes 11 and 12, respectively). The positions of the RXR-specific and COUP-TF-specific complexes are indicated in FIG. 1 by a plain line ("–"). […] The free probe was run off the gel and is not shown.

[4] = target: T3, COUP-TF (EAR-3) (UniProt P10589 P10589:1-423); assay: EMSA; COUP-TF-specific complex, 500 ng protein; conditions: tags: none, pET-8C bacterial expression, partially purified; label: 32P
T3 sequence: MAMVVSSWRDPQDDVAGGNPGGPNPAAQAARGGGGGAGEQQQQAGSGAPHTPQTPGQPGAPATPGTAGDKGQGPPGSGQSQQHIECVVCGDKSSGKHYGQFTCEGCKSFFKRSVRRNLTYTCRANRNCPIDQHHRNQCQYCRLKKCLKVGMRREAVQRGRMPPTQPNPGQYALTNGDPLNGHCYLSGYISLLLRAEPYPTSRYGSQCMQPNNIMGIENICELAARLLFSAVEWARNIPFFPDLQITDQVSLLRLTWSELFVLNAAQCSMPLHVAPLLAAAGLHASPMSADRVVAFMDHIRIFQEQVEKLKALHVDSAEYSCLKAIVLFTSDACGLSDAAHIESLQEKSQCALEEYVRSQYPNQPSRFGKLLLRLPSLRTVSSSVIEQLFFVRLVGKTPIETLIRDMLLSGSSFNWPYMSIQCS
Protocol: as §1, §2

[5] = target: T2, COUP-TF/RXRalpha heterodimer; assay: EMSA; supershift data similar to DR-1; conditions: tags: RXR as GST fusion; label: 32P
[6] = target: T4, RAR/RXR heterodimer (UniProt P10276;P19793 P10276:1-462,P19793:1-462); assay: EMSA; high affinity; 10-fold excess of unlabeled site competes; conditions: label: 32P
[7] = target: T4, RAR/RXR heterodimer; assay: EMSA; high affinity; also competes for CRBPII-RXRE binding; conditions: label: 32P

B1: hRXRα expressed in cells from RS-hRXRα (receptor, human, UniProt P19793 1-462, looked up)
chain: MDTKHFLPLDFSTQVNSSLTSPTGRGSMAAPSLHPSLGPGIGSPGQLHSPISTLSSPINGMGPPFSVISSPMGPHSMSVPTTPTLGFSTGSPQLSSPMNPVSSSEDIKPPLGLNGVLKVPAHPSGNMASFTKHICAICGDRSSGKHYGVYSCEGCKGFFKRTVRKDLTYTCRDNKDCLIDKRQRNRCQYCRYQKCLAMGMKREAVQEERQRGKDRNENEVESTSSANEDMPVERILEAELAVEPKTETYVEANMGLNPSSPNDPVTNICQAADKQLFTLVEWAKRIPHFSELPLDDQVILLRAGWNELLIASFSHRSIAVKDGILLATGLHVHRNSAHSAGVGAIFDRVLTELVSKMRDMQMDKTELGCLRAIVLFNPDSKGLSNPAEVEALREKVYASLEAYCKHKYPEQPGRFAKLLLRLPALRSIGLKCLEHLFFFKLIGDTPIDTFLMEMLEAPHQMT
notes: Intracellular expression; whole cell extracts in the Cos cell gel shifts; also called RS-hRXRa
[1]
  binding result: binds

B2: RXR-glutathione-S-transferase fusion protein (hRXRα expressed in bacteria as a fusion with glutathione-S-transferase, pGEX-2T) (receptor, human, UniProt P19793 1-462, looked up)
chain: B1 chain
notes: GST placed N-terminal as in pGEX-2T vectors; also called RXR-GST; GST-RXR; not shown: glutathione-S-transferase encoded by the pGEX-2T expression vector
[2]
  binding result: binds

B3: chicken ovalbumin upstream promotor transcription factor (COUP-TF; EAR-3) (receptor, UniProt P10589 1-423, looked up)
chain: T3 sequence
notes: mature; Partially purified bacterial protein in the gel shifts; also called bacterially-expressed COUP-TF; RS-COUP-TF product
[2]
  binding result: binds

B4: DR-1 (dsDNA)
DNA 1: AGCTTCAGGTCAGAGGTCAGAGAGCT
DNA 2: AGCTCTCTGACCTCTGACCTGAAGCT
[3]
  binding result: binds
[4]
  binding result: binds

B5: COUP-TF RE (ovalbumin) (dsDNA)
DNA 1: AGCTTGGTGTCAAAGGTCAAACTTAGCT
DNA 2: AGCTAAGTTTGACCTTTGACACCAAGCT
[5]
  binding result: binds

B6: CRBPII-RXRE (dsDNA)
DNA 1: AGCTGTCACAGGTCACAGGTCACAGGTCACAGTTCAAGCT
DNA 2: AGCTTGAACTGTGACCTGTGACCTGTGACCTGTGACAGCT
[6]
  binding result: binds

B7: βRARE (dsDNA)
DNA 1: AGCTTAAGGGTTCACCGAAAGTTCACTCGCATAGCTGCT
DNA 2: AGCAGCTATGCGAGTGAACTTTCGGTGAACCCTTAAGCT
[7]
  binding result: binds
